These results are taken from article doi:10.1101/2021.10.11.463801.

This assay addresses DLIC1[388-523] (human). The experiment in a line: ITC.

B1: JIP3[1-108] (domain or fragment)
chain: MMEIQMDEGGGVVVYQDDYCSGSVMSERVSGLAGSIYREFERLIHCYDEEVVKELMPLVVNVLENLDSVLSENQEHEVELELLREDNEQLLTQYEREKALRRQAEEKF
On to B1, for which the Kd (usually the concentration at which binding is half-saturated) amounted to 1000 nM and the stoichiometry N (DLIC1-C molecules per RH1 dimer) was 2.

B2: JIP4[1-103] (domain or fragment)
chain: MELEDGVVYQEEPGGSGAVMSERVSGLAGSIYREFERLIGRYDEEVVKELMPLVVAVLENLDSVFAQDQEHQVELELLRDDNEQLITQYEREKALRKHAEEKF
Consider B2, for which the Kd came to 4000 nM and the stoichiometry N (DLIC1-C molecules per RH1 dimer) was 2.
